Results from paper PMC8983731, “Structural basis for the SUMO protease activity of the atypical ubiquitin-specific protease USPL1” (Nature Communications, 2022).

Experiments:
[1] = molecular target: T1, ∆14-SUMO2 precursor C48S/G93C with dehydroalanine at position 93 (SUMO2-DHA) (human, UniProt P61956 15-95, C48S | G93C, dehydroalanine (DHA) at position 93 (made from Cys93 of G93C with 2,5-dibromohexanediamide)); test: cell-based or functional assay
[2] = molecular target: T1, ∆14-SUMO2 precursor C48S/G93C with …; test: cross-linking; active site probe assay: protease at 2 μM with SUMO2-DHA at 6 μM, 30 °C, 3 h; formation of the covalent thioether adduct; USPL1 wild type and mutants for 3 h; details: both partners purified

T1 sequence (P61956 15-95 C48S/G93C): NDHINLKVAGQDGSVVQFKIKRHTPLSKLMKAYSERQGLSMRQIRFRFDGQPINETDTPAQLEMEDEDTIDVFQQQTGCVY

B1: USPL1 catalytic domain Y451F (enzyme, human, UniProt Q5W0Q7 212-514, looked up)
chain: MPLESKCTSFPQALCVQWKNAYALCWLDCILSALVHSEELKNTVTGLCSKEESIFWRLLTKYNQANTLLYTSQLSGVKDGDCKKLTSEIFAEIETCLNEVRDEIFISLQPQLRCTLGDMESPVFAFPLLLKLETHIEKLFLYSFSWDFECSQCGHQYQNRHMKSLVTFTNVIPEWHPLNAAHFGPCNNCNSKSQIRKMVLEKVSPIFMLHFVEGLPQNDLQHYAFHFEGCLYQITSVIQFRANNHFITWILDADGSWLECDDLKGPCSERHKKFEVPASEIHIVIWERKISQVTDKEAACLPL
notes: USPL1, human, catalytic domain Met212-Leu514, point mutant; Made by site-directed mutagenesis of pET28a-USPL1CD; source: E. coli Rosetta (DE3), purified (Ni Sepharose, Resource Q anion exchange); not shown: His tag (from the vector pET28a)
- proteolytic activity against SUMO2 substrates, fold decrease against wild type [1]: 4 fold
- fold decrease of binding against wild type [2]: 4 fold
